Measurements from the NTF2 design screens of Basanta et al. (2020).

Assay: protease stability score; higher = more stable; yeast display proteolysis, trypsin and chymotrypsin;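 note: relative to predicted unfolded state with 0 unfolded-like and 1 meaning tenfold more protease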

| Sequence | protease stability score |
| --- | --- |
| DEDEELARKVLKVWNQAVQTGDEEVLHKLFDPNVQLVQGDKQLHGMESLVRFLRRYDVVRHVDSDVERIHVQGDKIRVTIRLIVDMEINGKRVRTELTIHFIIEKIDGRWVLRELHFE | 0.964 |
| DEDEELARQIWELFVRAEETGDEELLEKLIDPHTRLHIGDKVFHGRDAIKHIRKRVDHVKRVHVESIRVFDGRVEIHSRQRWEINGVEVEQKFRFTMQKINGRWIMHDMSIL | 1.79 |
| DEDEELARRHLKRLMEIWNTGDEDSHRHLADPHMRYIYNGKQTHGRQVSAKILLEMRIDHLEIKRMHLVDGKLEIDGRMEGEVNGRKDTVEVIIHNEKVNGRWIIRELQFG | 0.503 |
| DEDEELDRKFTTLFLHLWETGDEDTMRDLLDPDVRLLIIYNGRHIEVHGREHMSKFLKDFWRKFKNLRIHVKHVEAIDGVVHISGETRFDGRSTLVQIDIDVVDGRIKSERYIFR | 1.76 |
| DEDEELIEKLLRLEEFAHKTGDERIMEELADPNTRLDINGRREHGMESFIRWLREARYTHFIWRDKIEIGEKMEIQGEVEGTYNGVRHRTEVILFVEKINGRWIIKEIEVR | 1.76 |
| DEDEELLREFFELLVEAELTGDEKEITRFADPNVILFQGEKEFHGRDFLIRLIMEIRIHHHELERFHLDVFNGRAEIHVDNRRDGWFDGKRIHTKVDLHIHSEKIDGRWLLKNINEILR | 0.716 |
| DEDEELLRRRADLFLKAYITGDENLLKRLADPDVLFDVNGRVFHGREHFITWLHRQLREFKNMRIHIRDIKHEVQGNFLHSEVDVTININGKEHWFILILIASKVDGKWIVEQIEIRFE | 1.48 |
| DEDEELMRRVVEIYIRALHTGDEDWMTHLADPHVKVDLLIDGRETELHGREWVVEIARKLGVKHSEVKDVHLVGDYIVIHLHLRIGDKEEEQDLIFLKVDGKWTLESSTIRRI | 1.53 |
| DEDEELRRRRSEIVRKDWETGDWKSIEELADPHVKNHIGEYLAVGRENLVFVLEHFLKVLGVKHREIHSSELHIVNGRAEVHIDTRLVVNGRNIKTHVRFIFDKVNGRWVMHSVEFHVD | 1.25 |
| DEDEELSERATREFIENWKTGNFDDLMKLLDPNVKLDVGDKRHHGRERMVRSMVEILKHLGANVIDIHDTDVYDGRIDIHLRLEAENHHSILTIHIEKINGRWLIRSMEIK | 1.26 |
| DEDEELSERVTREWLHAILTGDEDWLRRYVDPHVRVHINVDGKDRTVHGMDFLIEHLRRVPNVRFIIKHMEVETQGEKVIIRVNVRIRVGDKEHETEIILIVLKVDGRWIATSIFIHIR | 0.231 |
| DEDEELTRQIIEHIERNIETGDERRYRELVDPNARVDYNGVDKHGMHAILEVWNHIQHEFRGATIEHSRVRDWRFQGDKVILNFEHYFRIGDKNWRLDTRIIVDKVDGRWVIREVQIR | 1.47 |
| DEDEELVETHIRHEIRSAKTGDEESLHRLLDPNTRIEIGDKVFVGRETFTKWLRKLLHDAGVSKFEVHVRDMEIQGEKLILDGEWHINGVTIRTRIIVHKVNGRWHNKHMQME | 0.582 |
| DEDEELVKEWFEILMHKVITGDEDTLRNLADPNVRVDINGRDHHGREKFIEVYRRLWEDFGIDYIDSDVEEMKVYDGQAEVTIRLEIRFNGRTLELTTHYDVEKVDGKWRLRRHEVR | 1.29 |
| DEDEELVKKFFKEHSESNRTGDWHTIMKQADPNARIFINGVILHGRELFTEHMMRMVRRADHFHFHLEDMRVINGRAELDVHVHLNINGKIDNVETHFIVIKINGRWRLEESRFH | 0.661 |
| DEDEELVRHAYEDWLHTVRTGDEHTLNKLFDPHVRMHYDGVESHGWRIAHHFHRRFKNMQVRIDDEHIEVYGEFARVESKITLDVGEYKIDLTLIVIMIKVNGRWKIHSVRIEKR | 1.17 |
| DEDEELYEKFTRDLNHSLMTGDEEVMRELADPHVKVDFNGRELHGWEAVTFLLRVMGIDHLELKDIRLQGDKARNYTILRFNGRTSTLIVVLHKVNGKWIIESFEYR | 1.07 |
| DEDEEMAHWAMEVLTKLIRTGDEDTILDMIDPHARIVYGDKTHHGREHFEKIIHELGVKVFEVHEIENQGEKVTIHGRQHVNGRTYDVKLFVQKVNGRWYIKRVHIK | 1.42 |
| DEDEEMFHRAVRLLLEHSRTGDEELTTKMADPHVKVDINGRDLIGRESYSRWWSEKAEQMRIDFRFRRVEVFDGVIFIDFKLIVDVNGRRLEFELHILILKIDGRWIIKEVHVK | 0.68 |
| DEDEEMMEHLIRILVEVLKTGDWKELLKLADPHVRQDVNGVDIHGREDVSRRLANQAKELRLELHLQDVKVWNGRVDFDSRLHINQGEKYVQLHVRIITEKIDGRWRITEIHVR | 1.62 |
| DEDEEMSERLSRIIVKALRTGNEHVLRRLVDPDVLSSIDGRKHHGWEDWHEFLKRLGHENVDVQLEHLRFQGNKIELDMILRVGDKTHTQHIHILKVDGRWTMHEVRIK | 1.42 |
| DEDEEMSKLLLEVSERVIETGDEHLWTRLLDPNVRIHLIIGDKTIELIGRERAHELLHHILERYKNATLRLRSVEIQGDKVIVESELNVGDKRIKQIYIWTKINGQWVLEEVNIEVR | 1.44 |
| DEDEEMSRIALNLFIHAMDTGDEHTLTHLMDPNVQLQINGREIIGREEVIRFVRELGVKHVKSHRLRDMELQGDKIIIDAEVEESQGDKEHHFRHTIVFRKVNGRWIIQSIKIK | 2.13 |
| DEDEEMVEKALELMAETHETGDEDTLHDFFDPHTRMELQIGDKTIRDHGRHAMHWLLRILGINHIEIHHRTVRLINGRIHLHINGSINVNGQEIESRIHIYSEKIDGRWRVTRLEYRFH | 1.31 |
| DEDEENAKMFTELLWRVLLTGDEELFKEMADPHVRVIFDGREIHGRDDIAHWITEMRFEINILRINDVRLVGDYIKIDGTMERQGEINGKRIRSSHRIIIFVRKINGKWHLEQLHFS | 2.26 |

| Sequence | protease stability score |
| --- | --- |
| DEDEENARKVSKKYKEIVLTGDEHALERLIDPNVRIDFNGKEFHGREDLSRLFHERFKRADHIEFDVKHINVQGNKVDLDVREIEIVGDKTHVHNVILHVLKIDGRWLIKEIRVH | 1.26 |
| DEDEENARRFIHELSRILETGDEERLDEMADPDVRIIIGEKHLHGREEFRKWMRHLLKRVKNMQIEVQLTSSEIVGEWVNLDTTLIIRVGDKHYEHRTVVIVLKIDGRWFLHQIHFK | 1.79 |
| DEDEENFERLVHLTLHYLLTGDFEDFNHLADPHVKLNVNGQQHVGREKWSELLHLFGINHMQIEERDLRVIGDKVRLDVRGTSQVGDKEHEVHIHIHAQKVNGRWTVTEMQINTE | 2.1 |
| DEDEENIRKEVEIFKHLLETGNEQEMSKLADPNTRFYYGDKTIHGREEMIKFLHEEWRHLGVKHNEYRVKEMRSINGRAIIHGELIWKSENEIIHRDVLIIARKVDGKWVSESVHVH | 1.23 |
| DEDEENTRKLLESYIRVFRTGDEDRMIELADPDVRLKIDGVTRHGREDWMRHWLNLVERMGANVSELTRFDVFDGQVHSHHKLVQGDKERKMHLILIKVDGRWFLHEISEQ | 0.157 |
| DEDEENTRQAIDRIIRSWMTGDEKTMTELLDPRVRVEQGDKEFHGREDYTRWINEMRITHIDLRSIEKIDGRLHVHLEFDESVNGKRHRVDVELTIVKINGQWFLESVRIR | 0.681 |
| DEDEEQAEKMIKIWIHDMATGNEESLVRLADPRVRSEVDGVQLHGRESLRKFLHDEWRDLGVDRIQVHVRRYHVFDGRLHLDGEVIVNGQDKTMHIVLIKVDGRWHLKSVHFR | 2.14 |
| DEDEEQAERAIRIYTEVLNTGNEEESERMADPHVRIIVNGVILHGREMFYQYVHEWRVDIRVILRHVKVFEGWVDVEGEFNSHLEVNGRHENNRSKVRLHILKVNGVWLIHEVRVH | 1.5 |
| DEDEEQARRLAELIRHLLITGDEYVNRKMADPRVQFILHQGDKNYLHHGRDEVVRRLRELWEEWGFDQIHVNLDDVKIVNGRVIIHTRLQVGDKHMELRFIIEKIDGKWLVTHEQIHLH | 1.62 |
| DEDEEQLHEMVRIFLENMQTGNFEALLNYMDPNAKRRDVQGDKDITYIGREQAKEHDEKLDRHLGVKHFEIKRITIQGEKADIDTRLLFNGQLRDVRIHIIIVNGKLSYLEVQID | 0.897 |
| DEDEEQLKEMWREFLEASRTGDEHRIKELADPNARLRQGDKRFHGREEFSRLIVEMRIRHIEIRRIRVVGDKIEITTELHVIYNGQHIEVDTHVIILKVNGRWSLTEMEER | 0.905 |
| DEDEEQLRKWTRLTWRDMITGNEDSLHRLFDPHTRLDIDGVDVHGMESVSRKISDEMKRFDHVDFHLHDMRIFNGRAHIDGRLRFHINGVHLERREVIVILKINGQWFNEQISYK | 0.196 |
| DEDEEQTRRAWKINLEQWLTGDEELLDRNLDPDVRNDVNGVRLHGMELLTEMLHRFIEKLKGATIRLKDFRLRFYGNKIEVRVETIVHVNGVQIHVELIFIATKVDGRWRIHEISHHNR | 0.868 |
| DEDEERAKKLAEDTLHSWRTGNEEHMIKLADPNVRVEWNGKDFVGREEFKRSVHKMLRDLGVDNIEVRLDHIEVDEDHAIVYGEVIYNGRISQIEWVFRKVNGRWYLHRMHIRDR | 1.54 |
| DEDEERAQEMAKRLEDSLHTGDEETHQNLMDPHMRLRVNGKEFHGRENILHFLREWRIHHLDVRLRHIDDRGEYIIINSEVRVDGNIDGKRTELHTISEIILVKVDGRWMTDEFRFH | 0.72 |
| DEDEERARHHLEEIIKTIHTGDENLYEKLVDPNAWMDINGRELHGREEVVKYWSHEAHRFGIDVIRLRHEERVGNYVHSDTDLEVNGKTIKTRLVMLKINGKWVIQSFEMH | 0.75 |
| DEDEEREKVYHELHLHNLLTGNEEILANLVDPHVLSIVNGKELHGMDEVRKLWQELGWTWHDIHIHDEKRIGNKVHIDVRLNGNINGRTMIVRAKITITKINGRWYVSHIEII | 0.718 |
| DEDEERIREVVERFLRDWETGDEKSLKHLLDPNVRMIIDGVDIVGREEALRLMKKLVDDLGIKHVHFHRVRLDVQGDKVRSEVDGEFEVGDKHTKVHTLLILRKVDGKWIFESVHMDHK | 2.27 |
| DEDEERKHKILEIWLHSLETGDETKLEEMVDPNVRIEFNGREHHGWEHFLEFVRVFGAKVLHLEDEREDGNKIIHHIVVHVNGRRHTLIVIAHKVNGRWVISSIRFE | 1.45 |
| DEDEERMEHMIHLLDHALETGDWRTISKLIDPHVRLEVNGVNFVGREEIITFLLEIRMSSRIHIKDFRVVGDKLEMEIDSHIDLHYNGKTYQTRVESRLIIKKVNGRWILQESSER | 1.15 |
| DEDEERMHWMVEVLLRMLETGNEEIVKRLVDPNARVHTEDHSSMGREEFSRFMLELAKRFDVFHDVELKHVEVQGEKIILDGKFHIEVNGRRNYLDIELIIIKIDGRWKIEEVRFH | 1.25 |
| DEDEERNEHFLRLYEKITTTGDEDIAKELIDPNARLHVNGKDIHGRESVVKWLKELRIHHLKLRHFRIVGEKAENDISYDVEVDGRTNRRDVHIYLLKIDGRWVIHSIEVR | 1.84 |
| DEDEERSERLLHMVIELLLTGDEEKWNNLLDPHARVEIDGQERHGRHIVTHFLTRFKNVRMHIHDVKVYGEKVDITTEITFNGKHINVHIELVFVNGKMTSVRFEWHRH | 2.02 |
| DEDEERVKLASELYTHIMHTGDERLTKEFFDPRVRSDINGRELHGREIITEMVSRYKNMTLHSHREEVQGEWAFIDGRMEYGDKEWKIHIITLKVNGRWVVTEIEFH | 0.778 |
| DEDEERVREFFELFFKALFTGDEEELKRLLDPHVKLIINGREFVGREQMTRLLNEIRVSWTELRIRRIERQGDKVIFDAEVHVERHQGDYHEQKTIKVILYMRKVDGRWLLESIEIR | 2.38 |
